Reference: the supplement of paper PMC12764529
± gives the half width of the 95% confidence interval.

What was measured:
[1] = folding stability dG unfold from chymotrypsin proteolysis; higher = more stable
Procedure, shortened: (§1)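 Bayesian fitting of sequencing counts gave K50 for each design. Unfolding free energy followed by setting this against a sequence-predicted unfolded-state K50 and a shared folded-state K50, either per protease or with trypsin and chymotrypsin combined. The designs, under 80 residues and lacking cysteine, were digested in a PA-tagged cDNA display format at 11 threefold-diluted protease concentrations and without protease, and only those with AlphaFold2 dimer inter-PAE above 15 were kept.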

[2] = folding stability dG unfold (combined trypsin and chymotrypsin); higher = more stable
Procedure, shortened: as §1

[3] = folding stability dG unfold from trypsin proteolysis; higher = more stable
Procedure, shortened: as §1

Row | Sequence | folding stability dG unfold [1] | folding stability dG unfold [2] | folding stability dG unfold [3]
1 | SAGGSAWEFVKEIAKELQEKHPGYQVNVDVEPQRNPENDRRYIRIWIHVQDKNGEIRRTWEIMIPFSAGGSA [r15_1048_TrROS] | 3.461 ± 0.018 kcal/mol | 3.44 ± 0.12 kcal/mol | 3.22 ± 0.053 kcal/mol
2 | SAGGSAGGSAGGSGMTYRTVEIEVRLPEVPGKTVKITIVVPEGATEEEIKALAEELARKSAGGSAGGSAGGS [r4_442_TrROS_Hall] | 2.88 ± 0.039 kcal/mol | 2.94 ± 0.12 kcal/mol | 2.87 ± 0.14 kcal/mol
3 | SAGGSAGGSAGGIIIPPGAKIVSIEKEGDFVKIKVYIPGSKKIETFKFPKGVPIIFEPEASAGGSAGGSAGG [r11_774_TrMRF] | 3.24 ± 0.075 kcal/mol | 3.41 ± 0.15 kcal/mol | 3.51 ± 0.28 kcal/mol
4 | SAGGGMVITTPQTTSTTFSPPTAPAVPAPFTQSSSFTIGNTKVTVTTTQAAGSGTTTVTLTTILPPLASAGG [r13_998_JUSTAS] | 1.18 ± 0.089 kcal/mol | 1.12 ± 0.065 kcal/mol | 1 ± 0.034 kcal/mol
5 | SAGGSMIPRLEERVLEVEVDSEEEAEKLKKELKEKIEKEHPGVEVKFELRKLPNGKYLLTITVVIPILSAGG [r13_17_JUSTAS] | 3.93 ± 0.041 kcal/mol | 3.64 ± 0.077 kcal/mol | 2.89 ± 0.058 kcal/mol
6 | SAGGSAGKNKPFPLPILIEAHPDDPEEAAERLKAELEALFPGPIKVEIVEVDPEKGIITAIVTVDGSAGGSA [r15_1024_TrMRF] | 1.58 ± 0.073 kcal/mol | 1.31 ± 0.096 kcal/mol | 0.985 ± 0.038 kcal/mol
7 | SAGMLRVDIEIPPAFRKMLKNAPPGETVMFELPIKIKIEYYQPDGGKPEPKEHEQPFPVQFMVVLPPDGSAG [r5_946_TrROS] | 3.18 ± 0.12 kcal/mol | 2.84 ± 0.2 kcal/mol | 2.14 ± 0.16 kcal/mol
8 | SAGGSAGGSKPIVAPVSVEDLTLEGLKALVDSHPEGEVPIFVTRSDGKPLVITVLPDGELSLDSAGGSAGGS [r12_1054_TrMRF] | -1.49 ± 0.31 kcal/mol | -0.318 ± 0.076 kcal/mol | 0.17 ± 0.019 kcal/mol
9 | SAGGSAGGSAGGGVGIAEISFDPETQTVTIKAYNPETEEITEITIPVTNPLPLDLSDITSAGGSAGGSAGGS [r10_331_TrMRF] | 0.858 ± 0.14 kcal/mol | 0.725 ± 0.2 kcal/mol | 0.477 ± 0.085 kcal/mol
10 | SAPPTVKINWERVRRNGKRYYMIRVEITHPNNGKEREHTFMYDDPEDFLDNLLKLPNIDRVEIEDIYPMSAG [r14_464_TrROS] | 1.8 ± 0.2 kcal/mol | 2.12 ± 0.51 kcal/mol | 1.64 ± 0.27 kcal/mol
11 | SAGGSAGGSAGGGMRFTVEVEPGKVSYSPGIVNKNTPGSSVSEIITVTVVETNPEKLLLSAGGSAGGSAGGS [r10_654_JUSTAS] | 0.638 ± 0.093 kcal/mol | 0.211 ± 0.19 kcal/mol | -0.499 ± 0.29 kcal/mol
12 | SAGGSAGGSAGKYEVTKIEVVKNEDGSEYLRVTIKVDGKEITITIPLEDAENIKIEIKPPSAGGSAGGSAGG [r17_64_TrROS_Hall] | 3.59 ± 0.036 kcal/mol | 3.38 ± 0.12 kcal/mol | 2.69 ± 0.086 kcal/mol
13 | SAGGSAGGSMNPEVPYAKVTLELKLPDGTTATLTLEVPLEEIPKVIEELKKKGYEILSIKIEPSAGGSAGGS [r12_986_JUSTAS] | 5.02 ± 0.13 kcal/mol | 5.07 ± 0.27 kcal/mol | 4.17 ± 0.23 kcal/mol
14 | SAGGATIELEVLLEDGTLVRVRAELDEDGRLVSVEVEVRRLEPPPPPPPPERTETRVETRTEYRPEESAGGS [r8_270_TrROS_Hall] | 3.23 ± 0.52 kcal/mol | 2.95 ± 0.48 kcal/mol | 2.73 ± 0.35 kcal/mol
15 | SAGGSAGGSAGTIRIKMKDGKPMEFPLKGLPKEDLDDPEFLDWIKDWARDSGMKIDDIEISAGGSAGGSAGG [r11_467_TrROS] | 1.09 ± 0.072 kcal/mol | 0.608 ± 0.14 kcal/mol | -0.62 ± 0.22 kcal/mol
16 | SAGGSIEELAEELARRFAEENGAAEVRVEVEGLPDNTVLVRVYVRGPDGELLGVVDALIPVPEDELSAGGSA [r2_153_TrMRF] | 2.09 ± 0.062 kcal/mol | 2.05 ± 0.085 kcal/mol | 1.94 ± 0.045 kcal/mol
17 | SAGGMTFSGVTREQALAIAKALEEEGYVLERVEVVEFPEDGTVRALVVVRDPETDEPLAEIELDIKPSAGGS [r16_750_TrMRF] | 1.81 ± 0.036 kcal/mol | 1.7 ± 0.055 kcal/mol | 1.53 ± 0.017 kcal/mol
